Test results as given in patent publication EP4745156A1 (Beijing Vjtbio Co., Ltd., dated 2026).

Biological target: T1, His-tagged canine IL-31 (interleukin 31) recombinant protein (canine)
T1 construct: Expressed in HEK293 cells, purified on a Ni column; unlabelled analyte in BLI; also called canine IL-31 recombinant protein; biotin-labeled canine IL-31 recombinant protein
Experiment: BLI (Gator), biotinylated antibody on streptavidin probe, canine IL-31 as analyte

B1: Lokivetmab (antibody, V domains shown)
VH: EVQLVESGGDLVKPGGSLRLSCVASGFTFSNYGMSWVRQAPGKGLQWVATISYGGSYTYYPDNIKGRFTISRDNAKNTLYLQMNSLRAEDTAMYYCVRGYGYDTMDYWGQGTLVTVSS
VL: EIVMTQSPASLSLSQEEKVTITCKASQSVSFAGTGLMHWYQQKPGQAPKLLIYRASNLEAGVPSRFSGSGSGTDFSFTISSLEPEDVAVYYCQQSREYPWTFGQGTKLEIKR
Kd: 19.3 nM
koff: 0.00203 s⁻¹
kon: 105000 M⁻¹ s⁻¹
